US20100015137A1 (IMMUNEX, published 2010)

Biological target: T1, full length human TRAIL receptor (TRAIL-R) (human, UniProt O14763 56-440)
T1 construct: The signal peptide is only predicted (residues 1-51)
Test: flow cytometry on transfected CV-1/EBNA cells, LZ-TRAIL at 5 µg/ml
Experimental: CV-1/EBNA cells were co-transfected with pDC409-TRAIL-R together with pDC409-CrmA, or with pDC409-CrmA alone. The cells were cultured in DMEM supplemented with 10% fetal bovine serum, penicillin, streptomycin, and glutamine. […] The cytometric analysis was conducted on a FACscan (Beckton Dickinson, San Jose, Calif.).

B1: LZ-TRAIL (leucine zipper peptide fused to the N-terminus of a soluble human TRAIL polypeptide) (ligand, UniProt P50591 95-281, looked up)
chain: TSEETISTVQEKQQNISPLVRERGPQRVAAHITGTRGRSNTLSSPNSKNEKALGRKINSWESSRSGHSFLSNLHLRNGELVIHEKGFYYIYSQTYFRFQEEIKENTKNDKQMVQYIYKYTSYPDPILLMKSARNSCWSKDAEYGLYSIYQGGIFELKENDRIFVSVTNEHLIDMDHEASFFGAFLVG
notes: range 95-281; also called LZ-huTRAIL; not shown: modified leucine zipper that allows for trimerization
binding result: binds
